We go through 5 molecules from article PMC13495755 (Journal of the American Chemical Society, 2026).

For orientation: Kd means the concentration at which binding is half-saturated. The IC50 is the concentration that gives 50% inhibition.

The star is where a group is joined. 5FAM = O=C1OC2(c3ccc(O)cc3Oc3cc(O)ccc32)c2ccc(C(=O)*)cc21; Ahx = NCCCCCC(=O)O

The target in one test is BCL-xL (UniProt Q07817). In words: fluorescence polarisation; direct FA titration of the labeled BID peptide with BCL-xL or MCL-1.
The next test concerns the target MCL-1 (UniProt Q07820). The test is described as above.
For a further test, the target named is T1, MCL-1 (172-327).
T1 construct: MCL-1 residues 172-327 as labelled; source: E. coli BL21 DE3, purified (His-trap, SUMO tag removed with His-Ulp1, reverse His-trap, Superdex 75); not shown: His6, N-terminal, cleaved; SUMO, N-terminal, cleaved
T1 chain: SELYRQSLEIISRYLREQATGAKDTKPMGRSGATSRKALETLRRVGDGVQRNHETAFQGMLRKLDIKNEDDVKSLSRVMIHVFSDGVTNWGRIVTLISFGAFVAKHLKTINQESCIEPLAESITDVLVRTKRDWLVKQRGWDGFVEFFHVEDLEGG
In words: fluorescence polarisation; competitive fluorescence anisotropy; target protein (BCL-xL or MCL-1) fixed at 150 nM, FAM-BID tracer fixed at 25 nM, competitor protein titrated in; FA buffer 20 mM Tris, 150 mM NaCl pH 7.4, 1 mM DTT, 0.01% triton x100 (legends: 20 mM Tris-HCl, 150 mM NaCl, pH 7.5); triplicate; logistic fit. As to conditions: both partners purified. (In fluorescence polarisation assays a small probe gives low polarisation when free and higher when bound to something large.)

Another test has as its target T2, BCL-xL (1-26 + 81-198).
T2 construct: BCL-xL, first stretch of the loop-deleted construct; BCL-xL, second stretch; Loop between the two stretches deleted; no linker; source: E. coli BL21 DE3, purified (His-trap, SUMO tag removed with His-Ulp1, reverse His-trap, Superdex 75); not shown: His6, N-terminal, cleaved; SUMO, N-terminal, cleaved
T2 chain: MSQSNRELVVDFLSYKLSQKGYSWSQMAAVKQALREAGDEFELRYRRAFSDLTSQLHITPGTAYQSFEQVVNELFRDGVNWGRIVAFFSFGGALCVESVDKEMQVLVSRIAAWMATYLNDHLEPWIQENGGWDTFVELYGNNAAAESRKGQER
Described as above. As to conditions: both partners purified.

The next test deals with T3, KLHL20 (303-605).
T3 sequence (Q9Y2M5 303-605, species assumed, looked up): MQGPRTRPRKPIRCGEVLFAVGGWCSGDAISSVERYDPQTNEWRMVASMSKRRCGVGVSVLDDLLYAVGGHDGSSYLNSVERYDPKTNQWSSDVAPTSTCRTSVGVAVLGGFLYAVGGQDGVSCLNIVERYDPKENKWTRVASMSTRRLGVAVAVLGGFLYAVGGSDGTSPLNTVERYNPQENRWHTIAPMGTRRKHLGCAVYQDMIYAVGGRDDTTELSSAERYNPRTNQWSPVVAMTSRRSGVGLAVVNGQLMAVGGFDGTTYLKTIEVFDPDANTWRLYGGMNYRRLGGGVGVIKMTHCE
In words: fluorescence polarisation; direct titration of the FAM-labelled tracer peptide with the target protein; FA buffer 20 mM Tris, 150 mM NaCl pH 7.4, 1 mM DTT, 0.01% triton x100.

The target in test [1] is T4, Kelch-like protein 20 (KLHL20) (UniProt Q9Y2M5 1-609).
T4 construct: Kelch-like protein 20 (KLHL20), E3 ubiquitin ligase adapter; The functional rows use this molecule for KLHL20 of HEK293 cells; also called E3 ligase adapter
T4 sequence (looked up): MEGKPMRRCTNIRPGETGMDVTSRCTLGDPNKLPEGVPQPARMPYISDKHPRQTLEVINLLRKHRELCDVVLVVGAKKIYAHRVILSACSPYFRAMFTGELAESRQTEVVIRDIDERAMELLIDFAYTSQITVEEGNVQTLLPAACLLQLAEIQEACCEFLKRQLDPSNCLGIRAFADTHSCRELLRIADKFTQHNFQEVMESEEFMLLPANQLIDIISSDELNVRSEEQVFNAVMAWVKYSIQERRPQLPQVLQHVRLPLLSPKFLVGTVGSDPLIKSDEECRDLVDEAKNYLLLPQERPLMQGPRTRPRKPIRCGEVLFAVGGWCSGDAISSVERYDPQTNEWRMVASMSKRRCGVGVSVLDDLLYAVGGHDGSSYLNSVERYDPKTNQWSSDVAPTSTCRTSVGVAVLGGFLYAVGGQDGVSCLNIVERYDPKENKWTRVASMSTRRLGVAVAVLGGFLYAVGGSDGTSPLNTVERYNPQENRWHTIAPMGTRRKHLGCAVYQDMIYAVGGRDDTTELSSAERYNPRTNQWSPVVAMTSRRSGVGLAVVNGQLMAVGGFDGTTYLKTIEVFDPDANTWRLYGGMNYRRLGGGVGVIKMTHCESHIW
In words: fluorescence polarisation; direct FA titration of the tracer with KLHL20. As to conditions: both partners purified.

Sequence of MCL-1 (Q07820 whole entry): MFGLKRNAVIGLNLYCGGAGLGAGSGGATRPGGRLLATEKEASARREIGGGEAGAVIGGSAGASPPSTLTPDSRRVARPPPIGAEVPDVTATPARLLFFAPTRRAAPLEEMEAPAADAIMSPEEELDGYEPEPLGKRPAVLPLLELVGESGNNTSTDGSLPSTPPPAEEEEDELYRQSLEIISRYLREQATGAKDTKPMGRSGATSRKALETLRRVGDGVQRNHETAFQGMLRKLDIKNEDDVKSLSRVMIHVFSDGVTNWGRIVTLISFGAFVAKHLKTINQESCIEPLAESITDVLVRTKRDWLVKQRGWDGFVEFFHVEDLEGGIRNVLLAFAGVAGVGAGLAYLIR

Take “BID, natural effector peptide, labeled competitor peptide”: the results for the Kd in the test with BCL-xL and with MCL-1 were 71 nM and 21.5 nM, respectively.

B1: Sc-apCC-2-BCL-xL-12 (designed binder)
chain: SHMGPELERLEERRRELERELEELDREIAELEWTIKSDPRKKELIVKLRQLFGRRLRLMGDIFDLDVQIRRLREG
Regarding B1, the IC50 amounted to 270 ± 20 nM in the test with MCL-1 (172-327) and 212 ± 18 nM with BCL-xL (1-26 + 81-198).

B2: FAM-DAPK1 (peptide)
peptide: {5FAM-Ahx}-LGLPDLVAK-NH2
SMILES: CC(C)C[C@H](NC(=O)CCCCCNC(=O)c1ccc2c(c1)C(=O)OC21c2ccc(O)cc2Oc2cc(O)ccc21)C(=O)NCC(=O)N[C@@H](CC(C)C)C(=O)N1CCC[C@H]1C(=O)N[C@@H](CC(=O)O)C(=O)N[C@@H](CC(C)C)C(=O)N[C@H](C(=O)N[C@@H](C)C(=O)N[C@@H](CCCCN)C(N)=O)C(C)C
In the case of B2, in the test with KLHL20 (303-605), the dissociation constant Kd is 12200 nM.
For {FAM-Ahx}-LGLPDLVAK-NH2 [tracer of the competitive FA-binding assay for KLHL20], in test [1], the affinity, expressed as Kd, was 12000 nM.

B3: Sc-apCC-2-BCL-xL-11 (designed binder)
chain: SHMGPELAALQAERDALEARLAELDREIAALEWRIPSDPRKKQLIGELLRLFGDRFDLERRIAELDAKIEALKNG
notes: de novo helix-loop-helix design against BCL-xL (Strategy 3, pAE); source: E. coli BL21 DE3, purified (His-trap, TEV cleavage, reverse His-trap, Superdex 75); not shown: His6, N-terminal, cleaved
For the molecule B3, the IC50 was determined as 500 ± 150 nM with MCL-1 (172-327) and 197 ± 10 nM with BCL-xL (1-26 + 81-198).
